The values that follow come from patent publication US20140056882A1.

The experiment deals with mouse G-CSF (mGCSF, R&D Systems Cat#414-CS) (mouse) (UniProt P09920). The experiment in a line: cell-based or functional assay.
Chain of UniProt P09920 (P09920 31-208 limits assumed): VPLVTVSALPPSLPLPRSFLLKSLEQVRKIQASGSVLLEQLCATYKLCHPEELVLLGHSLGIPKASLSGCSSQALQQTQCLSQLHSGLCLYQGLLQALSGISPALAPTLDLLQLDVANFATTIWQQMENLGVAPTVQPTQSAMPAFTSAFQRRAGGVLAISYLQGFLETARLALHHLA

The substance “R&D Systems antibody MAB414 (rat anti-mouse G-CSF monoclonal antibody, clone 67604)” yielded an IC50, inhibition of mG-CSF proliferation of hG-CSFR BaF3 cells (MTS reduction) of 0.01 nM. The value for “soluble hG-CSFR-Fc protein (from UniProt Q99062 25-332) (Fc fusion)” was 0.022 nM.
